# Test results as given in article PMC9482650, “Quantitative fragmentomics allow affinity mapping of interactomes” (Nature Communications, 2022).
# B1: HPV51-E6, P26554 (peptide)
# chain: RTRQRNETQV
# B2: ARHGEF16, Q5VV41 (peptide)
# chain: MERLRVETDV
# B3: DGKK, Q5KSL6 (peptide)
# chain: DPLTPSRSQL
# Key:
# Test in all cases: holdup assay
# Set-up in all cases: key: below the threshold = too weak to quantify, mostly under pKd 3.1 to 4
# Settings in all cases: plain residues with an end cap or a label only (N-terminal biotin on a linker: ttds)
# [1] = biological target: Q6ZWJ1
# [2] = biological target: T1, LNX2_4, Q8N448
# T1 sequence (Q8N448 595-690, limits assumed, looked up): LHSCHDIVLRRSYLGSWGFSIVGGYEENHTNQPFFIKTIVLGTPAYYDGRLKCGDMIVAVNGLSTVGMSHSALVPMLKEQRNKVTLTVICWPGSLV
# [3] = biological target: T2, MPDZ_3, O75970
# T2 sequence (O75970 372-473, limits assumed, looked up): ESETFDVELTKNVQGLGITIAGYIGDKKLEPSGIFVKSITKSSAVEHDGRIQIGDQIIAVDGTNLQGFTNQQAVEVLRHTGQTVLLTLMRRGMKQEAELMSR
# [4] = biological target: T3, PARD6G, Q9BYG4
# T3 sequence (Q9BYG4 153-261, limits assumed, looked up): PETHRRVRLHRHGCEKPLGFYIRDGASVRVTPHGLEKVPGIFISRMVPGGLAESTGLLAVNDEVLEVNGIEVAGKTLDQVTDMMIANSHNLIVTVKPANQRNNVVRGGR
# [5] = biological target: Q9NPB6
# [6] = biological target: O43166
# [7] = biological target: T4, PDZD4, Q76G19
# T4 sequence (Q76G19 125-224, limits assumed, looked up): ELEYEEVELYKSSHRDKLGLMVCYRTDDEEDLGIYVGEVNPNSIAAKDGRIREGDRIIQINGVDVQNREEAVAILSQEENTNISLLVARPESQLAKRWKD
# [8] = biological target: RGS3, P49796-9
# Sequence of RGS3, P49796-9 (P49796 other isoform, or with tags, fused parts or gaps): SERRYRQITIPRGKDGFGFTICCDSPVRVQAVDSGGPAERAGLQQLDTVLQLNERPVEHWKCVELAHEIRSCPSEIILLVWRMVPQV
# [9] = biological target: SDCBP_1, O00560
# Sequence of SDCBP_1, O00560 (O00560 111-198): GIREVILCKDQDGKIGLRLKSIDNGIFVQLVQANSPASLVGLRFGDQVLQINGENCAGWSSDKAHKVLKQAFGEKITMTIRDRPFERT
# [10] = biological target: Q9C0E4
# [11] = biological target: MAGI3_4, Q5TCQ9
# Sequence of MAGI3_4, Q5TCQ9 (Q5TCQ9 716-815): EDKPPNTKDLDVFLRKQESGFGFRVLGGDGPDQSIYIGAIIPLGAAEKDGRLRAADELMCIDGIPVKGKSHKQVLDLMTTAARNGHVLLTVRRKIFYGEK
# [12] = biological target: PARD3B_2, Q8TEW8
# Sequence of PARD3B_2, Q8TEW8 (Q8TEW8 376-471): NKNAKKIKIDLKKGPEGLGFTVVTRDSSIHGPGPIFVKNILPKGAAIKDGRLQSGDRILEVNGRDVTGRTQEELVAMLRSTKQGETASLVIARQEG
# [13] = biological target: T5, MPP5, Q8N3R9
# T5 sequence (Q8N3R9 251-346, limits assumed, looked up): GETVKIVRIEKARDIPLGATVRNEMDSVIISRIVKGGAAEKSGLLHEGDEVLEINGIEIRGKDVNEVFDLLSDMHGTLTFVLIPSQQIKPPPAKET
# [14] = biological target: DVL2, O14641
# Sequence of DVL2, O14641 (O14641 260-359): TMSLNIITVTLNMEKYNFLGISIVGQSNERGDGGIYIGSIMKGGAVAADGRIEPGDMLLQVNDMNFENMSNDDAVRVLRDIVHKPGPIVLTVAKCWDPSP
# [15] = biological target: Q12923
# [16] = biological target: NHERF4_3, Q86UT5
# Sequence of NHERF4_3, Q86UT5 (Q86UT5 325-412): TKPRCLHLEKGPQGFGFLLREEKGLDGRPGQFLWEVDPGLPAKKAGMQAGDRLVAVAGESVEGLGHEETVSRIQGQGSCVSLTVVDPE
# [17] = biological target: T6, INTU, Q9ULD6
# T6 sequence (Q9ULD6 180-273, limits assumed, looked up): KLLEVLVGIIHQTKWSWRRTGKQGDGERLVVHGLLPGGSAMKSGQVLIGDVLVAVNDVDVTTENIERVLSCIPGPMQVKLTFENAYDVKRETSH
# [18] = biological target: T7, MPDZ_6, O75970
# T7 sequence (O75970 1003-1099, limits assumed, looked up): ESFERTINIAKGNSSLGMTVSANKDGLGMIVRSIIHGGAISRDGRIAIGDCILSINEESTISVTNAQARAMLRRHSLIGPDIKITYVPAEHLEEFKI
# [19] = biological target: T8, PDZD7_1, Q9H5P4
# T8 sequence (Q9H5P4 81-178, limits assumed, looked up): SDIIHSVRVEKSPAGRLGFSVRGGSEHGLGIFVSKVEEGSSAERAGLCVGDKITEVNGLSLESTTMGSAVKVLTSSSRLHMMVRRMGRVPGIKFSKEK
# [20] = biological target: PDZRN4_2, Q6ZMN7
# Sequence of PDZRN4_2, Q6ZMN7 (Q6ZMN7 389-498): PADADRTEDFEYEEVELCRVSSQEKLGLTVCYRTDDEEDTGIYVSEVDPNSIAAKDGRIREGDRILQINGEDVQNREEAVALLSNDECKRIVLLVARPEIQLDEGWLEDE
# [21] = biological target: CARD14, Q9BXL6
# Sequence of CARD14, Q9BXL6 (Q9BXL6 558-663): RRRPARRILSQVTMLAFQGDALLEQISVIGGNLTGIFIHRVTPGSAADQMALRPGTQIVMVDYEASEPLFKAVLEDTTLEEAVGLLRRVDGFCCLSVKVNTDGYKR
# [22] = biological target: Q13368
# [23] = biological target: Q96JY6
# [24] = biological target: T9, SYNPO2L, Q9H987
# T9 sequence (Q9H987 1-98, limits assumed, looked up): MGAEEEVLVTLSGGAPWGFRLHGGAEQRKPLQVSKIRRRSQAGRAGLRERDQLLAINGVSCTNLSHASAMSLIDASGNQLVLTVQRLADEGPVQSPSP
# [25] = biological target: T10, MPDZ_13, O75970
# T10 sequence (O75970 1982-2070, limits assumed, looked up): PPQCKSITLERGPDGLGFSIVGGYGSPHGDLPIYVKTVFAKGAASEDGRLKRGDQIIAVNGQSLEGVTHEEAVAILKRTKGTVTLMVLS
# [26] = biological target: O00560
# [27] = biological target: Q96HC4
# [28] = biological target: TJP1_1, Q07157
# Sequence of TJP1_1, Q07157 (Q07157 18-120): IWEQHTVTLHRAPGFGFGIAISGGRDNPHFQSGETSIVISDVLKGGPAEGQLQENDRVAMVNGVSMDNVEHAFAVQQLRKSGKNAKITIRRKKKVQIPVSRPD
# [29] = biological target: Q9UDY2
Binder,pKd [1],pKd [2],pKd [3],pKd [4],pKd [5],pKd [6],pKd [7],pKd [8],pKd [9],pKd [10],pKd [11],pKd [12],pKd [13],pKd [14],pKd [15],pKd [16],pKd [17],pKd [18],pKd [19],pKd [20],other results
B1,below the threshold,below the threshold,below the threshold,below the threshold,below the threshold,below the threshold,below the threshold,below the threshold,below the threshold,below the threshold,below the threshold,4.39,below the threshold,4.59,below the threshold,below the threshold,below the threshold,below the threshold,below the threshold,below the threshold,pKd [21]: 4.34; pKd [22]: below the threshold; pKd [23]: below the threshold; pKd [24]: below the threshold; pKd [25]: below the threshold; pKd [26]: below the threshold; pKd [27]: below the threshold; pKd [28]: below the threshold; pKd [29]: below the threshold
B2,below the threshold,below the threshold,below the threshold,below the threshold,below the threshold,below the threshold,below the threshold,below the threshold,below the threshold,below the threshold,below the threshold,below the threshold,below the threshold,below the threshold,below the threshold,below the threshold,4.32,below the threshold,below the threshold,below the threshold,pKd [21]: below the threshold; pKd [22]: below the threshold; pKd [23]: below the threshold; pKd [24]: below the threshold; pKd [25]: below the threshold; pKd [26]: below the threshold; pKd [27]: below the threshold; pKd [28]: below the threshold; pKd [29]: below the threshold
B3,below the threshold,below the threshold,below the threshold,below the threshold,below the threshold,below the threshold,below the threshold,below the threshold,below the threshold,below the threshold,below the threshold,below the threshold,below the threshold,4.14,below the threshold,below the threshold,below the threshold,below the threshold,below the threshold,4.05,pKd [21]: below the threshold; pKd [22]: below the threshold; pKd [23]: below the threshold; pKd [24]: below the threshold; pKd [25]: below the threshold; pKd [26]: below the threshold; pKd [27]: below the threshold; pKd [28]: below the threshold; pKd [29]: below the threshold
